Results: patent US20210188980A1 (SHANGHAI EPIMAB BIOTHERAPEUTICS, published 2021)
Changes are numbered by the printed parent chain. Numbers in names are those of the source.

T1: recombinant human LAG-3-his protein (Novoprotein) (human, UniProt P18627 23-450)
T1 construct: Bought; also called huLAG-3; not shown: His tag
T1 sequence (looked up): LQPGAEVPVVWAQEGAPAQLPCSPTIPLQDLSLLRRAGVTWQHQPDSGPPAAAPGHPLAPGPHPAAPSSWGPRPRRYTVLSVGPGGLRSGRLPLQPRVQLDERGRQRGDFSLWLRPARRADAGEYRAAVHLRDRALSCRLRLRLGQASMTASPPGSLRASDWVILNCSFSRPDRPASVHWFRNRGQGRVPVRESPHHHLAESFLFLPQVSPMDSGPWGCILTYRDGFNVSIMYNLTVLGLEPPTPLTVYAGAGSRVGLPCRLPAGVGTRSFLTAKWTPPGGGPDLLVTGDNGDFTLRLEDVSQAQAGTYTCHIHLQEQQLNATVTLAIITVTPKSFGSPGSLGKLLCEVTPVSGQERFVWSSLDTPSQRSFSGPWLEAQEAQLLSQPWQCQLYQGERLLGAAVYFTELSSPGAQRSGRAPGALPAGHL

B1: HumAb703-12 (antibody, human IgG1, kappa, L234A L235A, V domains shown)
VH: EVQLQESGPGLVKPSETLSLTCAVSGYSISTGYYWNWIRQPPGKGLEWIGYMSYDGNNNYNPSLKNRITISRDTSKNQFSLKLSSVTAADTAVYYCARDRGTTILGGTMDYWGQGTTVTVSS
VL: DIQMTQSPSSLSASVGDRVTITCKASQSVSNDVAWYQQKPGKAPKLLIYYAFYRYTGVPDRFSGSGYGTDFTLTISSLQPEDFATYYCQQDYSSPWTFGGGTKVEIKR
notes: humanized mAb703
B2: HumAb703-22 (antibody, human IgG1, kappa, L234A L235A, V domains shown)
VH: B1 VH
VL: B1 VL with D1S, Q3V, A43S, S63T, Y87F
notes: humanized mAb703; also called HurnAb703-22
B3: HumAb703-11 (antibody, human IgG1, kappa, L234A L235A, V domains shown)
VH: B1 VH with I68V
VL: B1 VL
notes: humanized mAb703
B4: HumAb703-13 (antibody, human IgG1, kappa, L234A L235A, V domains shown)
VH: B1 VH with I49M
VL: B1 VL
notes: humanized mAb703
B5: HumAb703-18 (antibody, human IgG1, kappa, L234A L235A, V domains shown)
VH: B1 VH with I49M
VL: B1 VL with A43S, Y87F
notes: humanized mAb703
B6: mAb703c (antibody, V domains shown)
VH: DVQLQESGPGLVKPSQSLSLTCSVTGYSITTGYYWNWIRQFPGNKLEWMGYMSYDGNNNYNPSLKNRISITRDTSKNQFLLRLNSVTTEDTATYFCARDRGTTILGGTMDYWGQGTSVTVS
VL: SIVMTQTPKFLFVSAGDRVTIACKASQSVSNDVAWYQQKPGQSPKLLIYYAFYRYTGVPDRFTGSGYGTDFTFTISTVQAEDLAVYFCQQDYSSPWTFGGGTKLEIK
B7: HumAb713-6 (antibody, human IgG1, kappa, L234A L235A, V domains shown)
VH: EVQLVESGGGLVQPGGSLRLSCAASGFTFSDYGMHWVRQAPGKGLEWVSYISSGSYTIYYADTVKGRFTISRDNAKNSLYLQMNSLRDEDTAVYYCAKRGGSSHVNVMDYWGQGTTVTVSS
VL: DIQMTQSPSSLSASVGDRVTITCKASDHINNWLAWYQQKPGKAPKLLIYGATSLETGVPSRFSGSGSGTDYTFTISSLQPEDIATYYCQQYWSPPYTFGGGTKVEIKR
notes: humanized mAb713; also called HurnAb713-6
B8: HumAb713-5 (antibody, human IgG1, kappa, L234A L235A, V domains shown)
VH: B7 VH with K98R
VL: B7 VL
notes: humanized mAb713
B9: HumAb713-13 (antibody, human IgG1, kappa, L234A L235A, V domains shown)
VH: B7 VH with K98R
VL: B7 VL with Y49S, T69K
notes: humanized mAb713
B10: HumAb713-2 (antibody, human IgG1, kappa, L234A L235A, V domains shown)
VH: B7 VH
VL: B7 VL with Y71F
notes: humanized mAb713
B11: HumAb713-16 (antibody, human IgG1, kappa, L234A L235A, V domains shown)
VH: B7 VH with F29S, S49A
VL: B7 VL with Y49S, T69K
notes: humanized mAb713
B12: HumAb713-8 (antibody, human IgG1, kappa, L234A L235A, V domains shown)
VH: B7 VH with F29S, S49A
VL: B7 VL
notes: humanized mAb713; also called HurnAb713-8
B13: HumAb713-10 (antibody, human IgG1, kappa, L234A L235A, V domains shown)
VH: B7 VH
VL: B7 VL with Y49S
notes: humanized mAb713
B14: HumAb713-4 (antibody, human IgG1, kappa, L234A L235A, V domains shown)
VH: B7 VH with F29S, S49A
VL: B7 VL with Y71F
notes: humanized mAb713
B15: HumAb713-14 (antibody, human IgG1, kappa, L234A L235A, V domains shown)
VH: B7 VH
VL: B7 VL with Y49S, T69K
notes: humanized mAb713
B16: HumAb713-9 (antibody, human IgG1, kappa, L234A L235A, V domains shown)
VH: B7 VH with K98R
VL: B7 VL with Y49S
notes: humanized mAb713
B17: HumAb713-15 (antibody, human IgG1, kappa, L234A L235A, V domains shown)
VH: B7 VH with F29S
VL: B7 VL with Y49S, T69K
notes: humanized mAb713
B18: HumAb713-12 (antibody, human IgG1, kappa, L234A L235A, V domains shown)
VH: B7 VH with F29S, S49A
VL: B7 VL with Y49S
notes: humanized mAb713
B19: FIT107-1-7a-1 (bispecific antibody, human IgG1, kappa, L234A L235A)
chain 1: not shown
chain 2: EVQLVESGGGLVQPGGSLRLSCAASGFTSSDYGMHWVRQAPGKGLEWVSYISSGSYTIYYADTVKGRFTISRDNAKNSLYLQMNSLRDEDTAVYYCAKRGGSSHVNVMDYWGQGTTVTVSSASTKGPSVFPLAPSSKSTSGGTAALGCLVKDYFPEPVTVSWNSGALTSGVHTFPAVLQSSGLYSLSSVVTVPSSSLGTQTYICNVNHKPSNTKVDKKVEPKSC
chain 3: DIQMTQSPSSLSASVGDRVTITCRASQEISGYLSWLQQKPGGAIKRLIYAASALDSGVPSRFSGSRSGSDYTLTISSLQPEDFADYYCLQYASYPLTFGQGTKLELKRTVAAPSVFIFPPSDEQLKSGTASVVCLLNNFYPREAKVQWKVDNALQSGNSQESVTEQDSKDSTYSLSSTLTLSKADYEKHKVYACEVTHQGLSSPVTKSFNRGEC
notes: FIT-Ig hexamer; outer anti-PD-1 (HumAb713-7), inner anti-LAG-3 (HumAb747V-67 with G55A)
B20: FIT107-1-7a-2 (bispecific antibody, human IgG1, kappa, L234A L235A)
chain 1: not shown
chain 2: B19 chain 2
chain 3: B19 chain 3 with S56L
notes: FIT-Ig hexamer; outer anti-PD-1 (HumAb713-7), inner anti-LAG-3 (HumAb747V-72 with G55A)
B21: FIT107-1-7a-3 (bispecific antibody, human IgG1, kappa, L234A L235A)
chain 1: not shown
chain 2: B19 chain 2
chain 3: B19 chain 3 with A53T
notes: FIT-Ig hexamer
B22: FIT107-1-7b-2 (bispecific antibody, human IgG1, kappa, L234A L235A)
chain 1: not shown
chain 2: EVQLVQSGAEVKKPGATVKLSCTASGFNIKDDYMHWVKQRPEQGLDWIGWIVPRNANTVYASKFQGKATITADTSTNTAYLELSSLRSEDTAVYYCTVYGDYWGQGTTVTVSSASTKGPSVFPLAPSSKSTSGGTAALGCLVKDYFPEPVTVSWNSGALTSGVHTFPAVLQSSGLYSLSSVVTVPSSSLGTQTYICNVNHKPSNTKVDKKVEPKSC
chain 3: not shown
notes: FIT-Ig hexamer; outer anti-LAG-3 (HumAb747V-72 with G55A), inner anti-PD-1 (HumAb713-7)
B23: HumAb709-3 (antibody, human IgG1, kappa, L234A L235A, V domains shown)
VH: EVQLVESGGGLVQPGGSLRLSCAASGFTFSFYTMSWVRQAPGKRLEWVATISGGGRDTYYPDSVKGRFTISRDNAKNSLYLQMNSLRAEDTAVYYCAGQGGNYLFAYWGQGTLVTVSS
VL: DIQMTQSPSSLSASVGDRVTITCKASQDVNTVVAWYQQKPGKAPKLLIYWASTRHTGVPSRFSGSGSGTDYTLTISSLQPEDFATYYCQQHYTTPYTFGGGTKVEIKR
notes: humanized mAb709
B24: HumAb709-4 (antibody, human IgG1, kappa, L234A L235A, V domains shown)
VH: B23 VH with R44G, G98R
VL: B23 VL with Y49S
notes: humanized mAb709

Each binder was assayed against T2, human PD-1-His protein (human, UniProt Q15116 25-167, limits assumed) (assay: SPR Biacore).
T2 construct: also called huPD-1; not shown: His tag
T2 sequence (Q15116 25-167 limits assumed): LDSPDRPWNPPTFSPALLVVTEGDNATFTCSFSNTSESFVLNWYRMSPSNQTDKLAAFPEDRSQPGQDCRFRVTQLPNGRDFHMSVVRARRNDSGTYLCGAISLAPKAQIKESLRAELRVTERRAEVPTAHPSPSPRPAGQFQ

| Kd [nM] | koff [s⁻¹] | kon [M⁻¹ s⁻¹] | Binder |
| --- | --- | --- | --- |
| 9 | 0.00159 | 177000 | B1 |
| 6.94 | 0.00159 | 229000 | B2 |
| 9.37 | 0.00176 | 187000 | B3 |
| 10.6 | 0.00154 | 145000 | B4 |
| 18.9 | 0.00124 | 65700 | B5 |
| 2.68 | 0.000966 | 359000 | B6 |

Each binder was assayed against T3, human PD-1 expressed on cells (human, UniProt Q15116 25-288) (assay: cell RBA FACS; competitor PD-L1/Fc).
T3 construct: whole, on cells; also called CHO-K1/huPD-1; CHO-K1-hPD-1 cells
T3 sequence (Q15116 25-288): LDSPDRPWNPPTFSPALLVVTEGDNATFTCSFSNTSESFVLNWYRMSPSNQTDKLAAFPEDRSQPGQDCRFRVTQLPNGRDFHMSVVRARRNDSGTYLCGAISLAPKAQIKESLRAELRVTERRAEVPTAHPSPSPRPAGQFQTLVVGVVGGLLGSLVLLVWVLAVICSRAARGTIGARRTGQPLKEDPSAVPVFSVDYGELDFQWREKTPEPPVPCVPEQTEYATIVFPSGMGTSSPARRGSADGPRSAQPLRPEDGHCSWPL

| IC50 [nM] | Binder |
| --- | --- |
| 1.04 | B7 |
| 0.91 | B8 |
| 0.7 | B9 |
| 1.71 | B10 |
| 0.65 | B11 |
| 1.05 | B12 |
| 0.8 | B13 |
| 1.06 | B14 |
| 0.91 | B15 |
| 1.2 | B16 |
| 0.88 | B17 |
| 0.94 | B18 |

The binders below were run against T3, human PD-1 expressed on cells (assay: cell RBA FACS; competitor PD-L2/Fc).

| IC50 [nM] | Binder |
| --- | --- |
| 1.46 | B7 |
| 2.95 | B8 |
| 2.13 | B9 |
| 3.13 | B10 |
| 1.63 | B11 |
| 1.91 | B12 |
| 1.23 | B13 |
| 2.24 | B14 |
| 1.45 | B15 |
| 2 | B16 |
| 1.65 | B17 |
| 1.59 | B18 |

What follows are binders tested against T1, recombinant human LAG-3-his protein … (assay: BLI Octet, FIT-Ig captured, antigen analyte).

| Kd [nM] | koff [s⁻¹] | kon [M⁻¹ s⁻¹] | Binder |
| --- | --- | --- | --- |
| 0.732 | 0.000124 | 169000 | B19 |
| 1.22 | 0.000128 | 105000 | B20 |
| 1.47 | 0.000134 | 91000 | B21 |
| 1.41 | 0.000246 | 174000 | B22 |

These binders were tested against T2, human PD-1-His protein (assay: BLI Octet, FIT-Ig captured, antigen analyte).

| Kd [nM] | koff [s⁻¹] | kon [M⁻¹ s⁻¹] | Binder |
| --- | --- | --- | --- |
| 3.04 | 0.000538 | 177000 | B19 |
| 3.17 | 0.000526 | 166000 | B20 |
| 3.01 | 0.000628 | 208000 | B21 |
| 7.9 | 0.000827 | 105000 | B22 |

Each binder was assayed against T3, human PD-1 expressed on cells (assay: cell RBA FACS, CHO-K1-huPD1; competitor biotin-PD-L1/Fc).
Description: (§1) All 15 humanized antibodies and the chimeric antibody (mAb709c) were characterized by binding ELISA and cell-based RBA. For cell-based RBA, 2×10⁵ cells/well of CHO-K1-huPD1 cells were added to a pre-blocked 96-well round-bottomed plate and after washing, 50 μl antibodies with diluted concentration ranging from 0.064 nM to 200 nM were added to each well. Next, 50 μl of 60 μg/ml biotinylated PD-L1/Fc or biotinylated PD-L2/Fc protein were added. After gentle mixing and incubation at 4° C., the cells were washed and stained by Alexa Fluor™ 488 streptavidin solution (1:1000, ThermoFisher Scientific; Cat. No. S32354). Signals were readout by FACS and curves were fitted by GraphPad software. […] The association and dissociation rate constants, k (M⁻¹ s⁻¹) and koff(s⁻¹), respectively, were determined by making kinetic binding measurements at five different concentrations of human PD-1-His protein at a continuous flow rate of 30 μl/min. The equilibrium dissociation constant KD (M) of the reaction between antibodies and related target proteins was calculated from the kinetic rate constants using the formula KD=koff/kₒₙ. HumAb709-8 had minimal back-mutation(s) while maintaining to the greatest extent the affinity of the parental variable domains on chimeric mAb709c.

| IC50 [nM] | Binder |
| --- | --- |
| 1.25 | B23 |
| 0.78 | B24 |

The binders below were run against T3, human PD-1 expressed on cells (assay: cell RBA FACS, CHO-K1-huPD1; competitor biotin-PD-L2/Fc).
Description: as §1

| IC50 [nM] | Binder |
| --- | --- |
| 1.64 | B23 |
| 1.68 | B24 |
